Experimental data taken from the supplement of paper PMC10065799, “High-throughput profiling of sequence recognition by tyrosine kinases and SH2 domains using bacterial peptide display” (eLife, 2023).

Legend:
[1] = target: c-Src SH2; experiment: SH2 binding enrichment of the phosphorylated peptide, bacterial display (enrichment ratio); higher = better substrate or ligand; peptides without Tyr show the background
[2] = target: Grb2 SH2 (UniProt P62993); experiment: as above
[3] = target: SHP2-C SH2; experiment: as above
[4] = target: MERTK (UniProt Q12866); experiment: phosphorylation enrichment, bacterial display (enrichment ratio); higher = better substrate or ligand; peptides without Tyr show the background
[5] = target: Hck (UniProt P08631); experiment: as above
Chain of Hck (P08631 whole entry, looked up): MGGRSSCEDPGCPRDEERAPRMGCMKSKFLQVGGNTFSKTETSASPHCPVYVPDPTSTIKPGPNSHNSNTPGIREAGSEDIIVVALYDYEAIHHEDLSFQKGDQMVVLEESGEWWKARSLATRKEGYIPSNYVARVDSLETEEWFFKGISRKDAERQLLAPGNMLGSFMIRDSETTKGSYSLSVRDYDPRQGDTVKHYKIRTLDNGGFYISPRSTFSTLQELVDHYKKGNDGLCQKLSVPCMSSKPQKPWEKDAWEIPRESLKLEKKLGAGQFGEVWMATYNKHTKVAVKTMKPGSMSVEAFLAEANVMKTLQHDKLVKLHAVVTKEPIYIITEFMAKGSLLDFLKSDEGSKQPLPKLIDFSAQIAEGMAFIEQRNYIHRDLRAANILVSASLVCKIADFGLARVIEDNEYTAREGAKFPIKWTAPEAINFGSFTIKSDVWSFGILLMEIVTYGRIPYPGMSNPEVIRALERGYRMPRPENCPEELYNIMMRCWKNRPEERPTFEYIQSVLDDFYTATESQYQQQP

[6] = system: AncSZ; experiment: as above
[7] = target: EPHB2 (UniProt P29323); experiment: as above
[8] = system: c-Abl (mouse); experiment: as above
[9] = target: Fyn (UniProt P06241); experiment: as above
Chain of Fyn (P06241 whole entry, looked up): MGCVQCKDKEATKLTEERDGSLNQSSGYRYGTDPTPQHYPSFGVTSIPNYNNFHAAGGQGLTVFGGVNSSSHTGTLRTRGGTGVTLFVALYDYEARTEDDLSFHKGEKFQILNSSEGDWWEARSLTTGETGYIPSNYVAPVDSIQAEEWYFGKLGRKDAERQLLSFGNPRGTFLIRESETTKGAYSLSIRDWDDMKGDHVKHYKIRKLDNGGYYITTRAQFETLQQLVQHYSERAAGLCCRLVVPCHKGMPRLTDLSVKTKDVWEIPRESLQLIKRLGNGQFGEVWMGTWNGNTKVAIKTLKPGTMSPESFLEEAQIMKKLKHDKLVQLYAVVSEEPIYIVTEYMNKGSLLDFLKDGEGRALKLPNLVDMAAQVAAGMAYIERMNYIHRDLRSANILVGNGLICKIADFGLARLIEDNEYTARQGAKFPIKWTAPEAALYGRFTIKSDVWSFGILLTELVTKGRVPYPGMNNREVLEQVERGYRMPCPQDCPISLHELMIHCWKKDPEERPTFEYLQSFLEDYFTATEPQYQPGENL

[10] = system: c-Src; experiment: as above
[11] = target: Jak2 (UniProt O60674); experiment: as above
Chain of Jak2 (O60674 whole entry, looked up): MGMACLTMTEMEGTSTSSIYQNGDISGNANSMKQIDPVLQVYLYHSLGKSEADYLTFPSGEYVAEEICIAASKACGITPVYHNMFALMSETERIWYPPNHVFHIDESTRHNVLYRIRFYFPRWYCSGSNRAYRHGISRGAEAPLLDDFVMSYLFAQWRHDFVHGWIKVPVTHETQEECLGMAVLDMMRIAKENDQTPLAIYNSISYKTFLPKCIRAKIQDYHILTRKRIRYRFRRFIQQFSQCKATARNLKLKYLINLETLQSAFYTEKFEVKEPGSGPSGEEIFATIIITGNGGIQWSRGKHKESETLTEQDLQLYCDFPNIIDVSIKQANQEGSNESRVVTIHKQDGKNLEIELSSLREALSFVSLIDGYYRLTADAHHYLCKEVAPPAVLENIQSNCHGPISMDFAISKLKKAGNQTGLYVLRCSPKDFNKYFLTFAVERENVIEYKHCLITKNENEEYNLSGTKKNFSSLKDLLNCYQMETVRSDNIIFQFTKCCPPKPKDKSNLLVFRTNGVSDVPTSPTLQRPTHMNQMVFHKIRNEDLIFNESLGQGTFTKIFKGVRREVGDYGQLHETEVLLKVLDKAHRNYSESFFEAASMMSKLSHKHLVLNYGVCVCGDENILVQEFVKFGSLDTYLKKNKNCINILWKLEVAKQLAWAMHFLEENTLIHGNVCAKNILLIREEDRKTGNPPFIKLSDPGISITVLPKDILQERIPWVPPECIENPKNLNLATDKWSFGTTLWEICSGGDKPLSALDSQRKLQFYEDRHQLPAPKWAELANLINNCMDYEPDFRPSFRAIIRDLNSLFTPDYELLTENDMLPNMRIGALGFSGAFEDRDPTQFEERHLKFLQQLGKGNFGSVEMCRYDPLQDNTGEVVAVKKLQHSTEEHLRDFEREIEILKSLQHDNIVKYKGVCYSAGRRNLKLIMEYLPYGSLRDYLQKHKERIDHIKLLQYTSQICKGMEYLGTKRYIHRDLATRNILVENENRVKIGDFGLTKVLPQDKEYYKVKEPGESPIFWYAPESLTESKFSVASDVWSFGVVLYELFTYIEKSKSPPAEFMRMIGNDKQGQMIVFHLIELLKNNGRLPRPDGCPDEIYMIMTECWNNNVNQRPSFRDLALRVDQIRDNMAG

[12] = target: EPHB1 (UniProt P54762); experiment: as above
Chain of EPHB1 (P54762 whole entry, looked up): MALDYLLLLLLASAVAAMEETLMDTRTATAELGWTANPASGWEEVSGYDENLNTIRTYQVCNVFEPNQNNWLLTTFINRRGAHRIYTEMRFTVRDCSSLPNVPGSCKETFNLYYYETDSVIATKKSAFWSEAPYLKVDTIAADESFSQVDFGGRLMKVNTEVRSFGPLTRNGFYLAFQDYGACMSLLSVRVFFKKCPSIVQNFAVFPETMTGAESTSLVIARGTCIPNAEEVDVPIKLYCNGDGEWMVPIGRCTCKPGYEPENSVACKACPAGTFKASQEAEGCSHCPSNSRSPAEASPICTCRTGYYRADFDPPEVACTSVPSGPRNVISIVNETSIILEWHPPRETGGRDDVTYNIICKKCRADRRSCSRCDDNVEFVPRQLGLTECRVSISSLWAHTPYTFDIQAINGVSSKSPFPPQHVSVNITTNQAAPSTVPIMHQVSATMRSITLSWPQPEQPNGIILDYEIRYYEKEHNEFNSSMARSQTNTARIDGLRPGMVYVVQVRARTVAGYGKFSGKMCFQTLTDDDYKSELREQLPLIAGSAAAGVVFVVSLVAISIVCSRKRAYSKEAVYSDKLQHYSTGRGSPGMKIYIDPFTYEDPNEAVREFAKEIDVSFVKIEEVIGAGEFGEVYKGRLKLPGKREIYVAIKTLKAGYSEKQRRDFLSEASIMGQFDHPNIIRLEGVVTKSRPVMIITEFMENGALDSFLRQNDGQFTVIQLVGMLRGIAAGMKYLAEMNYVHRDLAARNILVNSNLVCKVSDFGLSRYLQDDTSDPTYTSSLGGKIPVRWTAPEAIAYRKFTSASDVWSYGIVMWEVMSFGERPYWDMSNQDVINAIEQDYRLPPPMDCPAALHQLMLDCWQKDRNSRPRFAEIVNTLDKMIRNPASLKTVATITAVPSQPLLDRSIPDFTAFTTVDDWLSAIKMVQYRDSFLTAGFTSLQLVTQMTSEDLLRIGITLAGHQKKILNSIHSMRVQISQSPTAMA

[13] = target: FGFR3 (UniProt P22607); experiment: as above
Chain of FGFR3 (P22607 whole entry, looked up): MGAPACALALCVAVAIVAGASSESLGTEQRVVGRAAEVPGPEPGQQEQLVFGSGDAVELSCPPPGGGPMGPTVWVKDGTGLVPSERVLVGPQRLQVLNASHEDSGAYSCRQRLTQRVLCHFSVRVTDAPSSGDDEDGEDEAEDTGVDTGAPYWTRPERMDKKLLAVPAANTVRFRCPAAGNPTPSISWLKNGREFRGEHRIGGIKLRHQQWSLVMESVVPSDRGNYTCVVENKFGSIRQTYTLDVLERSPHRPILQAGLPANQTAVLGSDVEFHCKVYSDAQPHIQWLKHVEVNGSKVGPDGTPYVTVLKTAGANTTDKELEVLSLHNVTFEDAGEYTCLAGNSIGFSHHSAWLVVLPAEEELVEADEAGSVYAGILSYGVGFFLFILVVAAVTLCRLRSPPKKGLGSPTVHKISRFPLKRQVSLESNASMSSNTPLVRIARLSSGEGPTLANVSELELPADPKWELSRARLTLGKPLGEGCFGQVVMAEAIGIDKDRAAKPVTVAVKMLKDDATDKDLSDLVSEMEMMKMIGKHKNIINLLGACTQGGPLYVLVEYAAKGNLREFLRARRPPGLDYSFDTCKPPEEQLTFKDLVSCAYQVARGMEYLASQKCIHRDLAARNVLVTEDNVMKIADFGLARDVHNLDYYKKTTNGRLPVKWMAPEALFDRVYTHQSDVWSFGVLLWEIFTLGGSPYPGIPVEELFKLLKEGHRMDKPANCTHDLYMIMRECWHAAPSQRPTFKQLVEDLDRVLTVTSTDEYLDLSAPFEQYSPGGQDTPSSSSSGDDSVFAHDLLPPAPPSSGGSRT

[14] = target: FGFR1 (UniProt P11362); experiment: as above
[15] = target: Fes (UniProt P07332); experiment: as above
Chain of Fes (P07332 whole entry, looked up): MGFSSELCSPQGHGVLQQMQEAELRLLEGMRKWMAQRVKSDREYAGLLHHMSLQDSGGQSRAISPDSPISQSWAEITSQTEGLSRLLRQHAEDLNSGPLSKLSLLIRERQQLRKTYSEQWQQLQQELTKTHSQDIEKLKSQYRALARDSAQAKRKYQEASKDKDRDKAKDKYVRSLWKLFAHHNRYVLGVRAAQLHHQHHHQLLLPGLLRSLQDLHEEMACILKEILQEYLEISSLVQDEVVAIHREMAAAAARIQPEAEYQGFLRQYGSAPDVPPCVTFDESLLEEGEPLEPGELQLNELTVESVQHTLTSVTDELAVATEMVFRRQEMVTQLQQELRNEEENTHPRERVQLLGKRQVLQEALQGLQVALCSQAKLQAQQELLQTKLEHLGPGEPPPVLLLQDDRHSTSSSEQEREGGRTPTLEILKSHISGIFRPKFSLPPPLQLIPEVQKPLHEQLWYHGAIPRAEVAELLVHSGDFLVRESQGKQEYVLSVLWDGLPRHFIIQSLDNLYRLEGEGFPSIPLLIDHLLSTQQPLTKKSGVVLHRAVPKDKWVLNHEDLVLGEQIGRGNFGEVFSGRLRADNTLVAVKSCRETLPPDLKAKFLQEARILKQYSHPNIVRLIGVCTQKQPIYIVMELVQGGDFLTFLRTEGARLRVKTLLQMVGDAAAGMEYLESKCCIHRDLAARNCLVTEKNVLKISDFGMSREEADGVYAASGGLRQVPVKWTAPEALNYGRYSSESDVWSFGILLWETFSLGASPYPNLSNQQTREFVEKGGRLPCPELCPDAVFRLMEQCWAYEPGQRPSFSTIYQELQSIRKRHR

[16] = system: Fer (mouse); experiment: as above
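Throughout, for SH2 binding enrichment of the phosphorylated peptide, bacterial display: peptide library displayed on the E. coli surface as eCPX fusions, selected cells deep-sequenced, score is each peptide's frequency after selection divided by its frequency in the input.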
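Throughout, for phosphorylation enrichment, bacterial display: 11-residue human phosphosite peptides and single-mutation variants displayed on the E. coli surface, counted by deep sequencing, each peptide's frequency after selection divided by its frequency in the unselected input library; frequency after pTyr selection over input frequency; kinase dosed for 20-30% of maximal phosphorylation in three min.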

Chain of Grb2 SH2 (P62993 whole entry, looked up): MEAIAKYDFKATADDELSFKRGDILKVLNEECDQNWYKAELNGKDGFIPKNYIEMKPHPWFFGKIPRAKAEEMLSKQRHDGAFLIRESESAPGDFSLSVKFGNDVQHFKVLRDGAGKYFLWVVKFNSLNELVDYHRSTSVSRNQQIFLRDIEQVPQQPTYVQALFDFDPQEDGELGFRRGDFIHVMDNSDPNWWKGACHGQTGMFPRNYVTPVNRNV

Sequence | SH2 binding enrichment [1] | SH2 binding enrichment [2] | SH2 binding enrichment [3] | phosphorylation enrichment [4] | phosphorylation enrichment [5] | phosphorylation enrichment [6] | phosphorylation enrichment [7] | phosphorylation enrichment [8] | phosphorylation enrichment [9] | phosphorylation enrichment [10] | phosphorylation enrichment [11] | phosphorylation enrichment [12] | phosphorylation enrichment [13] | phosphorylation enrichment [14] | phosphorylation enrichment [15] | phosphorylation enrichment [16]
KLQKKYGPISS [CYP17A1_Y60_Y64S] | 0.554 | 0.873 | 0.594 | 0.378 | 0.375 | 0.381 | 0.317 | 0.399 | 0.343 | 0.364 | 0.364 | 0.32 | 0.493 | 0.338 | 0.553 | 0.289
KPAFSYTSSST [SIM1_Y356] | 0.503 | 0.944 | 0.715 | 0.417 | 0.446 | 1.01 | 0.533 | 0.606 | 0.578 | 0.484 | 0.528 | 0.467 | 0.475 | 0.415 | 0.635 | 0.447
LWKWKYEELKE [CCDC102B_Y299] | 0.81 | 1.43 | 0.808 | 0.336 | 0.513 | 1.28 | 0.493 | 0.725 | 0.631 | 0.27 | 1.09 | 0.92 | 1.24 | 0.573 | 1.73 | 0.712
HILQLYRCREE [ALPK3_Y342_T338I] | 0.546 | 0.729 | 0.748 | 0.515 | 0.553 | 0.945 | 0.705 | 0.423 | 0.65 | 0.577 | 0.709 | 0.924 | 0.871 | 0.763 | 1.05 | 0.556
KKMEVYQSIAD [MYBPC3_Y548_L545M] | 1.28 | 0.775 | 0.576 | 0.451 | 1.47 | 0.927 | 0.627 | 0.764 | 0.943 | 0.91 | 1.04 | 0.745 | 0.681 | 0.719 | 1.04 | 0.508
RELGEYGLQAY [ALDH2_Y497] | 0.451 | 0.745 | 0.749 | 0.562 | 0.824 | 1.55 | 0.754 | 0.962 | 0.822 | 0.696 | 1.32 | 0.699 | 0.977 | 0.676 | 1.61 | 0.949
TRGLEYIVPLM [CLCN4_Y548_G544R] | 0.825 | 0.835 | 0.707 | 0.457 | 0.493 | 1.18 | 0.721 | 0.89 | 0.456 | 0.541 | 2.02 | 0.804 | 1.04 | 1.41 | 0.78 | 0.409
YPKARYRWLVL [APTX_Y214_H215R] | 0.933 | 1.08 | 1.02 | 0.478 | 0.422 | 0.786 | 0.553 | 0.499 | 0.464 | 0.399 | 0.6 | 0.434 | 0.492 | 0.611 | 0.787 | 0.456
LEIETYRRLLD [KRT12_Y429] | 0.473 | 0.762 | 0.602 | 0.367 | 0.497 | 0.854 | 0.549 | 0.656 | 0.468 | 0.369 | 1.01 | 0.616 | 0.627 | 0.45 | 1.03 | 0.471
TTGGFYSYGGG [KRT24_Y120_A115T] | 0.945 | 0.773 | 0.778 | 13.9 | 2.39 | 1.03 | 1.1 | 0.692 | 2.56 | 1.25 | 0.763 | 1.18 | 0.664 | 0.528 | 1.04 | 4.54
NNHGNYIVHLG [ETFDH_Y172_R175H] | 0.587 | 0.863 | 0.856 | 0.493 | 0.511 | 0.71 | 2.19 | 0.53 | 0.525 | 0.391 | 0.583 | 4.2 | 0.537 | 0.623 | 0.698 | 0.712
QGQHWYSSSDK [CASP10_Y9] | 1.21 | 0.905 | 0.829 | 0.573 | 0.754 | 0.826 | 0.596 | 0.697 | 0.671 | 0.552 | 0.645 | 0.766 | 0.6 | 0.665 | 1.17 | 0.579
DTCPPYVLSQG [GJB4_Y237] | 0.518 | 0.679 | 0.589 | 0.439 | 0.507 | 1.12 | 0.417 | 1.07 | 0.663 | 0.637 | 1.21 | 0.637 | 0.77 | 0.552 | 1.32 | 0.671
EALDFYGEVKT [PTEN_Y155_R159K] | 0.471 | 0.813 | 0.757 | 0.409 | 1.15 | 1.19 | 0.722 | 0.844 | 1.2 | 1.21 | 1.6 | 0.719 | 0.823 | 0.53 | 1.56 | 0.78
KGERGYPGTLG [COL4A1_Y348_P352L] | 0.421 | 0.873 | 0.537 | 0.403 | 0.448 | 0.597 | 0.439 | 0.398 | 0.392 | 0.337 | 0.475 | 0.339 | 0.484 | 0.375 | 0.505 | 0.345
QLDQHYLLVPE [DDX49_Y223_R222H] | 0.604 | 0.815 | 0.436 | 0.825 | 0.893 | 1.16 | 1.09 | 0.642 | 0.955 | 0.654 | 1.14 | 1.21 | 2.09 | 1.6 | 1.1 | 0.643
